Results published in publication PMC6158212.

Target: GP ectodomain of EBOV strain Mayinga-76 with a deleted mucin-like domain (EBOV GPΔMuc) (Zaire EBOV strain Mayinga-76)
Test: crystal structure

GP ectodomain of EBOV strain Mayinga-76 with a deleted mucin-like domain (EBOV GPΔMuc) (complex)
stoichiometry N: 3
